Data reported in article PMC7790537.

Experiments:
[1] = target: recombinant trimeric HA of A/New Caledonia/20/1999 (H1N1) (influenza A virus A/New Caledonia/20/1999 (H1N1)) (UniProt Q6WG00)
[2] = target: recombinant trimeric HA of A/Victoria/210/2009 (H3N2) (influenza A virus A/Victoria/210/2009 (H3N2))

Substance	HI activity, minimum HI concentration, NC20 virus [1] [µg/mL]	HI activity, minimum HI concentration, Vic210 virus [2] [µg/mL]	NT activity, minimum virus-neutralizing concentration, Vic210 virus [2] [µg/mL]
Fab-deficient (ΔFab) IgA1 monomer (domain or fragment)	> 500	794	> 500
Fab-deficient (ΔFab) IgA2m2 monomer (domain or fragment)	> 500	500	> 500
